# Reference: PMC5062964
# T1: Ets-1ΔN331 (minimal ETS domain) (mouse (murine)?, UniProt P27577 331-440)
# T1 sequence: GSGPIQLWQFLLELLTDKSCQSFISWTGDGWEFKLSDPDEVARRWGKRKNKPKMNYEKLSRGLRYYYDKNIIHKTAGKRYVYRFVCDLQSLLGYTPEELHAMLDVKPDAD
# How the values were obtained:
# PU.1ΔN167 (ETS domain) = PU.1ΔN167 (ETS domain) (mouse (murine), UniProt P17433 167-272); experiment: competitive fluorescence anisotropy
# [1] = molecular target: T1, Ets-1ΔN331 (minimal ETS domain); experiment: competitive fluorescence anisotropy
binder,measurement,setting,value
SC1 unmethylated (dsDNA) DNA 1: CGGCCAAGCCGGAAGTGAGTGCC DNA 2: GGCACTCACTTCCGGCTTGGCCG,Kd,PU.1ΔN167 (ETS domain),0.32 ± 0.17 nM
same,Kd,[1],0.14 ± 0.03 nM
"SC1 hemi-methylated, forward (5'-GGAA-3' strand) (dsDNA, 5-methyl-dC at strand 1 position 10 (CpG)) DNA 1: CGGCCAAGCCGGAAGTGAGTGCC DNA 2: GGCACTCACTTCCGGCTTGGCCG",Kd,PU.1ΔN167 (ETS domain),1.5 ± 0.9 nM
